Test results published in US20080134370A1, “Novel Altered Gene from Rice Anthranilic Acid Synthase Gene Oasa2 and Use Thereof” (priority 2005, published 2008).
Where a chain is given by its changes, count along the chain named. Numbers in names are those of the source.

Columns and labels:
[1] = system: rice anthranilate synthase (OASA2 protein); test: Enzyme Activity Measurement 1: anthranilate synthase activity with 100 mM NH4Cl as amide group donating substrate; assay type: biochemical; conditions: without tryptophan, FIG. 1 and FIG. 2
Experimental: (§1) The OASA2 protein synthesized by the wheat embryo acellular system was quantified using rabbit anti-OASA2 antibody that had been prepared based on the peptide fragment with the sequence at position 161 to 175 (MDHEKGKVTEQVVDD) of the amino acid sequence of OASA2 protein. A refined sample of OASA2 protein was also used for the quantification. Western blot analysis was performed according to the method of Towbin et al. (Towbin, H., Staehelin, T. and Gordon, J. 1979. Electrophoretic transfer of proteins from polyacrylamide gels to nitrocellulose sheets: procedure and some applications. Proc Natl Acad Sci USA 76: 4350-4354). The estimated quantity of OASA2 protein was used for the correction of enzyme activity, as will be described later.
The OASA2 protein, which is the α subunit of rice anthranilate synthase catalyzes the reaction producing anthranilate from chorismate, using ammonia that originates in the amide group of glutamine supplied by the β subunit.
(§2) As is known, activity of OASA2 protein is under the feedback inhibition by tryptophan. It is therefore necessary to eliminate tryptophan in the protein synthesis reaction mixture, and replace the environment of the expressed protein with a buffer component for AS activity measurement. To this end, the protein synthesis reaction mixture was replaced with buffer A (50 mM Tris-HCl, pH7.6; 0.05 mM EDTA; 2 mM MgCl2; 0.05 mM DTT; 5% glycerol), using Microspin G-25 columns (Amersham Biosciences)<
(§3) Ninety μl of reaction solution (20 mM Tris-HCl, pH 8.3; 100 mM NH4Cl; 0.5 mM chorismate; 10 mM MgCl2) was supplemented with 2.5 μl of crude extract exchanged with buffer, and the reaction mixture was allowed to react for 1 hour at 32° C. The reaction was stopped by adding 10 μl of 1N HCl, and synthesized anthranilate was extracted with 300 μl of ethyl acetate. The yield of anthranilate was measured with Wallac 1420 ARVOsx-FL (Perkin-Elmer Life Sciences Japan. Co., Ltd.) at the excitation wavelength of 355 nm/fluorescence (emission) 460 nm. […]

[2] = system: rice anthranilate synthase (OASA2 protein); test: Enzyme Activity Measurement 2: anthranilate synthase activity in reaction system using the β subunit of rice anthranilate synthase (glutamine); assay type: biochemical
Experimental: as §1, §2
as §3, with “5” for “100”, “glutamine; 0.2 to 0.8” for “NH4Cl; 0.5”, “C. The preparation of rice anthranilate synthase β subunit and quantification of the product by the Western blot method were performed according to the method of Kanno et al. (Kanno et al. (2004) Plant Molecular Biology 54, 11-22)” for “C.”

[3] = system: Yeast TRP2 gene defective mutant strains; test: Free tryptophan content in yeast TRP2 gene defective mutant strains expressing OASA2 gene; assay type: cell-based
Source text: Yeasts with a defective TRP2 gene, analogous to OASA2 gene, require tryptophan for growth. It can therefore be said that TRP2 activity is complemented by OASA2 gene if OASA2 gene introduced into the yeast allows for growth without tryptophan. Further, the activity of mutant OASA2 gene can be assayed by causing the yeast to express the mutant OASA2 gene having resistance to tryptophan feedback inhibition and by measuring accumulation of free tryptophan in the organism.
Expression vectors were constructed by performing PCR with the primers below. […] As described above, the N terminus region of the OASA2 protein includes a chloroplast transit signal, and as such the primers were designed to exclude the signal sequence in the product of expression, as in the Split-PCR primers described in Section (2) above. […]
The yeast transformant was separated into single colonies on synthetic complete agar medium (0.67% amino acid-less bactoyeast nitrogen base, uracil-free 0.2% dropout mixture, 2% bactoagar) supplemented with 2% glucose. […] The preparation was then applied to a high-performance liquid chromatography (HPLC) device (the product of Waters, Waters Alliance HPLC FLD System 2695) and free tryptophan content was measured. For HPLC, a Xterra RP18 column (4.6×150 mm) (Waters) was used, and detection of tryptophan was made at the excitation wavelength 278 nm/fluorescence wavelength 348 nm.

B1: N351D: mutant OASA2 protein, substitution of asparatate residue for asparagine residue at position 351 (protein, UniProt Q9XJ29 50-606, looked up, variant N351D)
Anthranilate synthase alpha …: CSAGKPEASAVINGSAAARAAEEDRRRFFEAAERGSGKGNLVPMWECIVSDHLTPVLAYRCLVPEDNMETPSFLFESVEQGPEGTTNVGRYSMVGAHPVMEVVAKEHKVTIMDHEKGKVTEQVVDDPMQIPRSMMEGWHPQQIDQLPDSFTGGWVGFFSYDTVRYVEKKKLPFSGAPQDDRNLPDVHLGLYDDVLVFDNVEKKVYVIHWVNLDRHATTEDAFQDGKSRLNLLLSKVHNSNVPKLSPGFVKLHTRQFGTPLNKSTMTSDEYKNAVMQAKEHIMAGDIFQIVLSQRFERRTYADPFEVYRALRIVNPSPYMAYVQARGCVLVASSPEILTRVRKGKIINRPLAGTVRRGKTEKEDEMQEQQLLSDEKQCAEHIMLVDLGRNDVGKVSKPGSVKVEKLMNIERYSHVMHISSTVSGELDDHLQSWDALRAALPVGTVSGAPKVKAMELIDELEVTRRGPYSGGLGGISFDGDMLIALALRTIVFSTAPSHNTMYSYKDTERRREWVAHLQAGAGIVADSSPDDEQRECENKAAALARAIDLAESAFVDKE
With B1 the “enzyme activity (anthranilate yield) compared with wild type” value (shortened to “enzyme activity … compared with wild type”) [1] was “improved enzyme activity over the wild type”.

B2: L530A: mutant OASA2 protein, substitution of alanine residue for leucine residue at position 530 (protein, UniProt Q9XJ29 50-606, looked up, variant L530A)
Anthranilate synthase alpha …: B1 Anthranilate synthase alpha … with D302N, L481A
With B2 the “enzyme activity … compared with wild type” value [1] was “improved enzyme activity over the wild type”.

B3: L530D: mutant OASA2 protein, substitution of asparatate residue for leucine residue at position 530 (protein, UniProt Q9XJ29 50-606, looked up, variant L530D)
Anthranilate synthase alpha …: B1 Anthranilate synthase alpha … with D302N, L481D
With B3 the “enzyme activity … compared with wild type” value [1] was “improved enzyme activity over the wild type”.

B4: Wt: wild type rice anthranilate synthase encoded by rice anthranilate synthase gene OASA2 (SEQ ID NO: 1) (protein, listed as Oryza sativa)
chain: MESIAAATFTPSRLAARPATPAAAAAPVRARAAVAAGGRRRTSRRGGVRCSAGKPEASAVINGSAAARAAEEDRRRFFEAAERGSGKGNLVPMWECIVSDHLTPVLAYRCLVPEDNMETPSFLFESVEQGPEGTTNVGRYSMVGAHPVMEVVAKEHKVTIMDHEKGKVTEQVVDDPMQIPRSMMEGWHPQQIDQLPDSFTGGWVGFFSYDTVRYVEKKKLPFSGAPQDDRNLPDVHLGLYDDVLVFDNVEKKVYVIHWVNLDRHATTEDAFQDGKSRLNLLLSKVHNSNVPKLSPGFVKLHTRQFGTPLNKSTMTSDEYKNAVMQAKEHIMAGDIFQIVLSQRFERRTYANPFEVYRALRIVNPSPYMAYVQARGCVLVASSPEILTRVRKGKIINRPLAGTVRRGKTEKEDEMQEQQLLSDEKQCAEHIMLVDLGRNDVGKVSKPGSVKVEKLMNIERYSHVMHISSTVSGELDDHLQSWDALRAALPVGTVSGAPKVKAMELIDELEVTRRGPYSGGLGGISFDGDMLIALALRTIVFSTAPSHNTMYSYKDTERRREWVAHLQAGAGIVADSSPDDEQRECENKAAALARAIDLAESAFVDKE
In the case of B4, the “Relative Ratio (enzyme activity compared with the wild type)” value ([2]; Vmax relative to Wt) is reported as 1.00 fold, the “enzyme activity with tryptophan relative to 100% enzyme activity without tryptophan” value ([2]; tryptophan 50 μM, FIG. 3) is reported as “below 10%” and the Vmax ([2]; with β subunit, 5 mM glutamine, 0.2 to 0.8 mM chorismate) is reported as 215 nmol/min/mg OASA2 Protein. For the same molecule, the “Relative Amount” value ([3]; free tryptophan relative to yeast expressing Wt OASA2 gene) was 1.0 fold and the “Free Tryptophan Content” value ([3]; yeast transformant, galactose medium without tryptophan, 30° C., 2 days) was 126 ± 7 pmol/mg wet weight.
